Assay results from FireProtDB (doi:10.1021/bi049320b).

Details: Bacillus amyloliquefaciens, pH 8, 25 °C, Urea, Fluorescence, Tris-HCl 30 mM, whole UniProt chain shown

B1: Barstar wild type, P11540 (protein)
chain: MKKAVINGEQIRSISDLHQTLKKELALPEYYGENLDALWDCLTGWVEYPLVLEWRQFEQSKQLTENGAESVLQVFREAKAEGCDITIILS
- denaturant m value (KCl 0.5 M): 1.12 kcal/mol/M
- unfolding free energy (KCl 0.5 M): 24.3 kJ/mol
- denaturant m value (KCl 1.0 M): 1.19 kcal/mol/M
- unfolding free energy (KCl 1.0 M): 28.9 kJ/mol
- denaturant m value: 1.16 kcal/mol/M
- unfolding free energy: 20.1 kJ/mol
